Experimental data taken from IntAct's records for PubMed 17693255.

B1: Hamartin (Homo sapiens), Q92574 (parent)
chain: MAQQANVGELLAMLDSPMLGVRDDVTAVFKENLNSDRGPMLVNTLVDYYLETSSQPALHILTTLQEPHDKHLLDRINEYVGKAATRLSILSLLGHVIRLQPSWKHKLSQAPLLPSLLKCLKMDTDVVVLTTGVLVLITMLPMIPQSGKQHLLDFFDIFGRLSSWCLKKPGHVAEVYLVHLHASVYALFHRLYGMYPCNFVSFLRSHYSMKENLETFEEVVKPMMEHVRIHPELVTGSKDHELDPRRWKRLETHDVVIECAKISLDPTEASYEDGYSVSHQISARFPHRSADVTTSPYADTQNSYGCATSTPYSTSRLMLLNMPGQLPQTLSSPSTRLITEPPQATLWSPSMVCGMTTPPTSPGNVPPDLSHPYSKVFGTTAGGKGTPLGTPATSPPPAPLCHSDDYVHISLPQATVTPPRKEERMDSARPCLHRQHHLLNDRGSEEPPGSKGSVTLSDLPGFLGDLASEEDSIEKDKEEAAISRELSEITTAEAEPVVPRGGFDSPFYRDSLPGSQRKTHSAASSSQGASVNPEPLHSSLDKLGPDTPKQAFTPIDLPCGSADESPAGDRECQTSLETSIFTPSPCKIPPPTRVGFGSGQPPPYDHLFEVALPKTAHHFVIRKTEELLKKAKGNTEEDGVPSTSPMEVLDRLIQQGADAHSKELNKLPLPSKSVDWTHFGGSPPSDEIRTLRDQLLLLHNQLLYERFKRQQHALRNRRLLRKVIKAAALEEHNAAMKDQLKLQEKDIQMWKVSLQKEQARYNQLQEQRDTMVTKLHSQIRQLQHDREEFYNQSQELQTKLEDCRNMIAELRIELKKANNKVCHTELLLSQVSQKLSNSESVQQQMEFLNRQLLVLGEVNELYLEQLQNKHSDTTKEVEMMKAAYRKELEKNRSHVLQQTQRLDTSQKRILELESHLAKKDHLLLEQKKYLEDVKLQARGQLQAAESRYEAQKRITQVFELEILDLYGRLEKDGLLKKLEEEKAEAAEAAEERLDCCNDGCSDSMVGHNEEASGHNGETKTPRPSSARGSSGSRGGGGSSSSSSELSTPEKPPHQRAGPFSSRWETTMGEASASIPTTVGSLPSSKSFLGMKARELFRNKSESQCDEDGMTSSLSESLKTELGKDLGVEAKIPLNLDGPHPSPPTPDSVGQLHIMDYNETHHEHS

Variants of: B1
Conditions: with tsc2_human TSC2, P49815
Sequence of tsc2_human TSC2, P49815 (P49815 whole entry): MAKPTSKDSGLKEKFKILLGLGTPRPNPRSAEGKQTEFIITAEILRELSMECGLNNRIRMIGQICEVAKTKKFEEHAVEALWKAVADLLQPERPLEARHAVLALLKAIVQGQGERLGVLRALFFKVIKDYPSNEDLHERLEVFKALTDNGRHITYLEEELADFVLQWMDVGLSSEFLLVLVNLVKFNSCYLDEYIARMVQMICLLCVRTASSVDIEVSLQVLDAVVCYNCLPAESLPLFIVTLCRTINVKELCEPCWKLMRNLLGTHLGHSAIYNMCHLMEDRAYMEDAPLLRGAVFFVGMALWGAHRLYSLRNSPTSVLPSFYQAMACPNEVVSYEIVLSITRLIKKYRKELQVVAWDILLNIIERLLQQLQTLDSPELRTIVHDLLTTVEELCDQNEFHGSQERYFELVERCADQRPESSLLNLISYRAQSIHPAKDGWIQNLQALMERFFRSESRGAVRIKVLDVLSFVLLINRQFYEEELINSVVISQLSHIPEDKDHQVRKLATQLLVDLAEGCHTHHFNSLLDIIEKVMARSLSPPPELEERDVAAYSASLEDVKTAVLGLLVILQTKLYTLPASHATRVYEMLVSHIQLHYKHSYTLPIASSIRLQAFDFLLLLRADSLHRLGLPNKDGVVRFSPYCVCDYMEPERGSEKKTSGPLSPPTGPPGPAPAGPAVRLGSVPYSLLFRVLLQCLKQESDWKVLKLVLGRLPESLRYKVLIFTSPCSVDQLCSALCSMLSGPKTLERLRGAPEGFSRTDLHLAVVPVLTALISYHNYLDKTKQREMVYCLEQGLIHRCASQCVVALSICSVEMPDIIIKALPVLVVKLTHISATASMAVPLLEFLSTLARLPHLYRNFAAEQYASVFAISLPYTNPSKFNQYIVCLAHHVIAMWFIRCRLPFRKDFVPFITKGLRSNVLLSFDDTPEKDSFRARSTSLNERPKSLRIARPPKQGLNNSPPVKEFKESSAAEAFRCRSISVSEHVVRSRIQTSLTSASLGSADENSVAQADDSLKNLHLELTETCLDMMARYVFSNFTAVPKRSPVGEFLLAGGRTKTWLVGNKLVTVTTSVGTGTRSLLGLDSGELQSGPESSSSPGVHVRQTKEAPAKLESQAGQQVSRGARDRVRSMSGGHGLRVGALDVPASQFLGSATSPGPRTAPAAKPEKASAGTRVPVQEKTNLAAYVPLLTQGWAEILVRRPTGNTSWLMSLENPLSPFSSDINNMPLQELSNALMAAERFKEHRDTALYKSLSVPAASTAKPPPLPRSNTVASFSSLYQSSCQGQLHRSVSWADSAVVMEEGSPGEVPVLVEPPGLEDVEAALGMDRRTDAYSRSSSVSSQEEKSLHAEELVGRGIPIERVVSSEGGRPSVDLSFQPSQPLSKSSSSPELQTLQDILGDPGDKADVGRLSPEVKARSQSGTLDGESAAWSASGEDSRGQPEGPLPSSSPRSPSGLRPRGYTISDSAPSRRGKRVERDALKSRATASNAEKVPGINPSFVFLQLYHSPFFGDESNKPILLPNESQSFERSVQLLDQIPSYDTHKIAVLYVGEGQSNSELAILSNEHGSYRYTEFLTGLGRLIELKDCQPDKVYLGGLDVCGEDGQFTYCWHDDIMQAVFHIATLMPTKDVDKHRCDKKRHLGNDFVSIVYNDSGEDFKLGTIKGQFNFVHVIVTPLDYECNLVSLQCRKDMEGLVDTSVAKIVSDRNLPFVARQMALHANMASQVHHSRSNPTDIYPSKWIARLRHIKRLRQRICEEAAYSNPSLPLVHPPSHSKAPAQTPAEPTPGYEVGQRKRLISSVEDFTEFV

Question: How did the “effect of a mutation on the interaction” value turn out when S487D;S511D was run?
Answer: decreasing interaction
